According to patent publication US20220177587A1, “METHODS AND USES OF VARIANT CD80 FUSION PROTEINS AND RELATED CONSTRUCTS” (Alpine Immune Sciences, Inc., priority 2018, published 2022):
Residue numbers refer to the chain shown, from its start. Names may count otherwise.

B1: E35D/D46E/M47V/V68M/L85Q (protein, UniProt P33681 35-288, looked up, variant E35D D46E M47V V68M L85Q)
T-lymphocyte activation …: VIHVTKEVKEVATLSCGHNVSVEELAQTRIYWQKDKKMVLTMMSGEVNIWPEYKNRTIFDITNNLSIMILALRPSDEGTYECVVQKYEKDAFKREHLAEVTLSVKADFPTPSISDFEIPTSNIRRIICSTSGGFPEPHLSWLENGEELNAINTTVSQDPETELYAVSSKLDFNMTTNHSFMCLIKYGHLRVNQTFNWNTTKQEHFPDNLLPSWAITLISVNGIFVICCLTYCFAPRCRERRRNERLRRESVRPV
B2: E35D/M47V/V68M/L85M/Y87D (protein, UniProt P33681 35-288, looked up, variant E35D M47V V68M L85M Y87D)
T-lymphocyte activation …: B1 T-lymphocyte activation … with E46D, Q85M, Y87D
B3: E35D/D46V/V68M (protein)
chain: VIHVTKEVKEVATLSCGHNVSVEELAQTRIYWQKDKKMVLTMMSGVMNIWPEYKNRTIFDITNNLSIMILALRPSDEGTYECVVLKYEKDAFKREHLAEVTLSVKAD
B4: V68M/K89N (protein)
chain: B3 chain with D35E, V46D, K89N
B5: E35D/M47V/V68M/K89N (protein)
chain: B3 chain with V46D, M47V, K89N
B6: D46V/V68M/L85Q (protein)
chain: B3 chain with D35E, L85Q
B7: E35D/D46V/V68M/L85Q (protein)
chain: B3 chain with L85Q
B8: E35D/V68M/K89N (protein)
chain: B3 chain with V46D, K89N
B9: E35D/D46V/M47L/V68M (protein)
chain: B3 chain with M47L
B10: E35D/M47V/N48K (protein)
chain: B3 chain with V46D, M47V, N48K, M68V
B11: E35D/M47V/N48K/V68M (protein)
chain: B3 chain with V46D, M47V, N48K
B12: E35D/D46V/M47L (protein)
chain: B3 chain with M47L, M68V
B13: E35D/M47L/V68M/A71G (protein)
chain: B3 chain with V46D, M47L, A71G
B14: A26E/V68M/A71G/D90G (protein)
chain: B3 chain with A26E, D35E, V46D, A71G, D90G
B15: H18Y/M47L/A71G/D90G (protein)
chain: B3 chain with H18Y, D35E, V46D, M47L, M68V, A71G, D90G
B16: H18R/A26P/E35D/D46N/M47V/V68M/A71G/D90P (protein, UniProt P33681 35-288, looked up, variant H18R A26P E35D D46N M47V V68M A71G D90P)
T-lymphocyte activation …: B1 T-lymphocyte activation … with H18R, A26P, E46N, A71G, Q85L, D90P
modifications: Fc fusion
B17: H18V/A26P/E35D/M47V/V68L/A71G (protein, UniProt P33681 35-288, looked up, variant H18V A26P E35D M47V V68L A71G)
T-lymphocyte activation …: B1 T-lymphocyte activation … with H18V, A26P, E46D, M68L, A71G, Q85L
B18: T13R/E35D/M47LN68M (protein)
chain: B3 chain with T13R, V46D, M47L
B19: E35D/M47V/N48I/L85Q (protein)
chain: B3 chain with V46D, M47V, N48T, M68V, L85Q
B20: H18Y/E35D/M47I/V68M/Y87N (protein, UniProt P33681 35-288, looked up, variant H18Y E35D M47I V68M Y87N)
T-lymphocyte activation …: B1 T-lymphocyte activation … with H18Y, E46D, V47I, Q85L, Y87N
modifications: Fc fusion

Molecular target: huCTLA4 (Homo sapiens, UniProt P16410)
Test: Flow binding to CHO cells stably expressing CTLA4
Parameters: huCTLA4 and huPD-L1, full-length mammalian surface expression constructs were generated; expressed in transfected cells; host or cells: CHO cells, lentiviral transduction, sorted to >98% purity
Settings: Table E11; CHO cells stably expressing CTLA4; 33.3 nM
Procedure: (§1) Binding of selected immunomodulatory fusion proteins to cognate binding partners was assessed. […] Cells were sorted in a Bio-Rad S3 Cell Sorter (Bio-Rad Corp., USA) to >98% purity. Jurkat/IL2 reporter cells, which endogenously express CD28, were used to detect binding to CD28.
(§2) For staining and analysis by flow cytometry, 100,000 cells of appropriate transfected cells were plated in 96-well round bottom plates. Cells were spun down and resuspended in staining buffer (phosphate buffered saline (PBS), 1% bovine serum albumin (BSA), and 0.1% sodium azide) for 20 minutes to block non-specific binding. […] Primary staining was performed on ice for 45 minutes, before washing cells in staining buffer twice. Phycoerythrin (PE)-conjugated anti-human Fc (Jackson ImmunoResearch, USA) was diluted 1:150, added to cells and incubated another 30 minutes on ice. Cells were then washed twice with 150 μL/well stain buffer, fixed in 2% formaldehyde/PBS, and analyzed on Intellicyt flow cytometer (Intellicyt Corp., USA). PE Mean Fluorescence Intensity (MFI) was calculated for each cell type with FlowJo Version 10 software (FlowJo LLC, USA).
(§3) Binding assays were carried out to assess the specificity and affinity of multivalent proteins to cell-expressed CTLA-4, CD28, and PD-L1 counter structures.
(§4) The EC50 for binding also was determined.

Sequence of huCTLA4 (P16410 36-223): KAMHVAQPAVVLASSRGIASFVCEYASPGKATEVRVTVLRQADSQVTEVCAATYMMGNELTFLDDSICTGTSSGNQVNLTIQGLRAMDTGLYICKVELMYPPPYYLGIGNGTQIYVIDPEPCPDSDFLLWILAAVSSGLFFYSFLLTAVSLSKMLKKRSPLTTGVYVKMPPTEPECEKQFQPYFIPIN

CTLA4 MFI at 33.3 nM	Molecule
15533	B1
13936	B2

Same assay, conditions: Table E19; CHO cells stably expressing CTLA4; 33.3 nM

CTLA4 MFI at 33.3 nM	Molecule
31195	B3
2330	B4
29493	B5
7567	B6
32176	B7
24838	B8
34319	B9
47430	B10
32913	B11
44977	B12

Same assay, conditions: Table E20; CHO cells stably expressing CTLA4; 33.3 nM

CTLA4 MFI at 33.3 nM	Molecule
24656	B13
8666	B14
18162	B15

Same assay, conditions: Table E23; CD80 IgV-Fc (inert) at 33.3 nM; CHO cells stably expressing CTLA4

CTLA4 MFI at 33.3 nM	Molecule
17327	B16
13669	B17

Molecular target: T1, CD28 (Homo sapiens, UniProt P10747)
Test: Jurkat/IL2 + CHO/OKT3 +/- PD-L1 reporter assay: PD-L1-dependent CD28 costimulation
Type: cell-based
Parameters: host or cells: Jurkat cells expressing an IL-2-luciferase reporter
Settings: Table E13; Jurkat/IL2 + CHO/OKT3/PD-L1; 5.0 nM
Procedure: Jurkat cells were then plated at 50 μL/well for a total of 100,000 cells per well.
To each well, 25 μL of test protein was added to the Jurkat cells. […] The Jurkat cells with test or control proteins were incubated for 15 minutes at room temperature. CHO-derived artificial antigen presenting cells (aAPC) displaying transduced cell surface anti-CD3 single chain Fv (OKT3) (i.e., no PD-L1), or OKT3 and PD-L1 (i.e., +PD-L1), were brought to 0.8×10^6 cells/mL, and 25 μL of cells were added to each well, bringing the final volume of each well to 100 μL. […] Jurkat cells and CHO cells were incubated for 5 hours at 37 degrees Celsius in a humidified 5% CO2 incubation chamber. Plates were then removed from the incubator and acclimated to room temperature for 15 minutes. 100 μL of a cell lysis and luciferase substrate solution (BioGlo luciferase reagent, Promega) were added to each well and the plates were incubated on an orbital shaker for 10 minutes. Luminescence was measured with a 1 second per well integration time using a BioTek Cytation luminometer, and a relative luminescence value (RLU) was determined for each test sample.

Relative Luciferase Units (RLU), CD80 Cone 5.0 nM [RLU]	Molecule
1006	B1
1181	B2

Same assay, conditions: Table E21; Jurkat/IL2 + CHO/OKT3/PD-L1; CD80 Conc 5.0 nM

Relative Luciferase Units (RLU), CD80 Conc 5.0 nM [RLU]	Molecule
799	B3
100	B4
779	B5
267	B6
864	B7
537	B8
681	B9
561	B10
747	B11
746	B12

Same assay, conditions: Table E22; Jurkat/IL2 + CHO/OKT3/PD-L1; CD80 Conc 5.0 nM

Relative Luciferase Units (RLU), CD80 Conc 5.0 nM [RLU]	Molecule
745	B13
590	B14
675	B15

Same assay, conditions: Table E24; Jurkat/IL2 + CHO/OKT3/PD-L1; 5.0 nM

Relative Luciferase Units (RLU), CD80 Conc 5.0 nM [RLU]	Molecule
972	B16
881	B17

Molecular target: huPD-L1 (Homo sapiens, UniProt Q9NZQ7)
Test: Flow binding to CHO cells stably expressing PD-L1
Parameters: huCTLA4 and huPD-L1, full-length mammalian surface expression constructs were generated; expressed in transfected cells; host or cells: CHO cells, lentiviral transduction, sorted to >98% purity
Settings: Table E11; CHO cells stably expressing PD-L1; 33.3 nM
Procedure: as §1, §2, §3, §4

Sequence of huPD-L1 (Q9NZQ7 19-290): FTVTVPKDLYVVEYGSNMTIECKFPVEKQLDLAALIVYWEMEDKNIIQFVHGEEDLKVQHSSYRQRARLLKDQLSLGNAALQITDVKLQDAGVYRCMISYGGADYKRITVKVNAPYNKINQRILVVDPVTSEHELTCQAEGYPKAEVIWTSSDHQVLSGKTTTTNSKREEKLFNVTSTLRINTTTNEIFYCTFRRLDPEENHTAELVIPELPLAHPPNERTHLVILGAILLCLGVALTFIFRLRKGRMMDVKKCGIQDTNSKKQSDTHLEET

PD-L1 MFI at 33.3 nM	Molecule
19969	B18
1723	B1
1721	B2

Same assay, conditions: Table E19; CHO cells stably expressing PD-L1; 33.3 nM

PD-L1 MFI at 33.3 nM	Molecule
26114	B3
21827	B5
4852	B10
23479	B11
7988	B12

Same assay, conditions: Table E20; CHO cells stably expressing PD-L1; 33.3 nM

PD-L1 MFI at 33.3 nM	Molecule
27872	B13
3195	B14

Same assay, conditions: Table E23; CD80 IgV-Fc (inert) at 33.3 nM; CHO cells stably expressing PD-L1

PD-L1 MFI at 33.3 nM	Molecule
29306	B16
55417	B17

Molecular target: T1, CD28
Test: Flow binding to Jurkat/IL2 reporter cells (CD28)
Parameters: host or cells: Jurkat cells expressing an IL-2-luciferase reporter
Settings: Table E4; 33.3 nM; Jurkat cells (CD28)
Procedure: as §1, §2, §3, §4

CD28 MFI at 33.3 nM	Molecule
692	B19

Same assay, conditions: Table E11; Jurkats (CD28); 33.3 nM

CD28 MFI at 33.3 nM	Molecule
15.6	B18
4038	B20

Same assay, conditions: Table E16; consensus variants; Jurkats (CD28); 33.3 nM

CD28 MFI at 33.3 nM	Molecule
1429	B20
